We go through one substance from patent publication US20260193348A1.

Test [1] has as its target CD3 (Cluster of Differentiation 3 protein), human, on T cells / Jurkat cells (human) (UniProt P07766). Briefly: FACS, CD3+ T cells isolated from normal donors. On the technique in general: In flow cytometry, cells or beads pass a laser one at a time.
Test [2] concerns the target GPRC5D (G-protein coupled receptor family C group 5 member D), human, on multiple myeloma cell lines (human) (UniProt Q9NZD1). Briefly: cell-based or functional assay.

Chain of GPRC5D (G-protein coupled receptor family C group 5 member D), human, on multiple myeloma cell lines (human) (Q9NZD1 whole entry): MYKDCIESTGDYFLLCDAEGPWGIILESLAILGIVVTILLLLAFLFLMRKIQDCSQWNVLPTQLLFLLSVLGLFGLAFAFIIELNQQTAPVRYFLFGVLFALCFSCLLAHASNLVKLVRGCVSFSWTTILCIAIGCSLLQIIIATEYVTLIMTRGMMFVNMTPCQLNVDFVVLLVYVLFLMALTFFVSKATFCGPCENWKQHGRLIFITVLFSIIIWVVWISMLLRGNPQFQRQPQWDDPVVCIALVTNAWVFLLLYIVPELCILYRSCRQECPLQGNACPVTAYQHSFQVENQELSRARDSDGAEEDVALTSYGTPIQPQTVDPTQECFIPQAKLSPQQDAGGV
Chain of CD3 (Cluster of Differentiation 3 protein), human, on T cells / Jurkat cells (human) (P07766 23-207, chain 1 of 3): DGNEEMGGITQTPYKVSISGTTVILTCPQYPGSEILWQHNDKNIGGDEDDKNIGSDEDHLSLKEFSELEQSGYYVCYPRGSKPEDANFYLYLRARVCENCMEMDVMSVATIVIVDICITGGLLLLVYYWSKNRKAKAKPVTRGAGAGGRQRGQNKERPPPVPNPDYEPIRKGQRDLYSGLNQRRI
Chain of CD3 (Cluster of Differentiation 3 protein), human, on T cells / Jurkat cells (human) (P04234 22-171, chain 2 of 3, further chain): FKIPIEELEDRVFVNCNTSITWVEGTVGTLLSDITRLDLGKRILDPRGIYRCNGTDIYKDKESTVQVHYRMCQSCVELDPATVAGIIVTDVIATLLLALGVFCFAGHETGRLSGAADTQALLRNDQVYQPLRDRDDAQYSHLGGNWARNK
Chain of CD3 (Cluster of Differentiation 3 protein), human, on T cells / Jurkat cells (human) (P09693 23-182, chain 3 of 3, further chain): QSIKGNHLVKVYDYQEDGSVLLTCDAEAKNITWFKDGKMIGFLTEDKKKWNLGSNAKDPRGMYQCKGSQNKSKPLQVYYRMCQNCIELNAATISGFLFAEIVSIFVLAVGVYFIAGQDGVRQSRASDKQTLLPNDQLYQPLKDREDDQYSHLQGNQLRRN

In test [1], IgG1 (antibody) showed a Top (MFI) of 124 MFI. For the same substance, in test [2], the Top (%), T-Cell Dependent Cytotoxicity, MM.1S was found to be 6.08%; the Top (RLU), luciferase assay, L363 was 23.4 RLU; the Top (RLU), luciferase assay, MM.1S was found to be 30.7 RLU; the Top (RLU), luciferase assay, RPMI8226 was found to be 5.33 RLU.
